The target of assay [1] is head-tail joining protein (80α gp50) (Staphylococcus aureus bacteriophage 80α). The assay is described as follows: cryo-EM structure; focused reconstruction of the neck of purified SaPI1 virions with C6 symmetry, 3.1 Å; AlphaFold2 models fitted and refined in ISOLDE; virions in 20 mM Tris-HCl pH 7.8, 50 mM NaCl, 4 mM CaCl2, 1 mM MgSO4, treated with Benzonase.
Assay [2] deals with head-to-tail connector protein (80α gp49) (Staphylococcus aureus bacteriophage 80α). Described as above.
Assay [3] deals with major tail protein (80α gp53) (Staphylococcus aureus bacteriophage 80α). The assay is described as above.
Assay [4] deals with portal protein (80α gene product 42) (Staphylococcus aureus bacteriophage 80α). The assay is described as above.
The target in assay [5] is tail terminator protein (80α gp52) (Staphylococcus aureus bacteriophage 80α). Described as above.
The target in assay [6] is tape measure protein (80α gp56) (Staphylococcus aureus bacteriophage 80α). The assay is described as follows: cryo-EM structure; asymmetric (C1) reconstruction of the neck of purified SaPI1 virions after symmetry expansion and masked classification on the tail interior, 3.4 Å (3.54 Å in the methods); AlphaFold2/AlphaFold3 models fitted.

In assay [1], “head-tail joining protein (80α gp50) (natural protein)” registered a stoichiometry N of 6.
As for “head-to-tail connector protein (80α gp49) (natural protein)”, in assay [2], the stoichiometry N came to 12.
In turn, “major tail protein (80α gp53) (natural protein)” yielded a stoichiometry N in assay [3] of 6.
Regarding “portal protein (80α gene product 42) (natural protein)”, the stoichiometry N in assay [4] was found to be 12.
Substance “tail terminator protein (80α gp52) (natural protein)” yielded a stoichiometry N in assay [5] of 6.
The substance “tape measure protein (80α gp56) (natural protein)” registered a stoichiometry N in assay [6] of 3.

The stoichiometry N is a count of units in the complex or per binding partner.

The record behind these values is doi:10.1101/2024.12.10.627806.
